The results in this text go back to PMC3917506.

The target in this test is mRFP1-Rac1 (wild type) (human), P63000. The test is described as follows: FRET or BRET. The note with it: remark: other sources report otherwise. For orientation: Bioluminescence resonance energy transfer reports proximity on the nanometre scale.

B1: Teal-N-WASP, O00401 1-505 (natural protein)
chain: MSSVQQQPPPPRRVTNVGSLLLTPQENESLFTFLGKKCVTMSSAVVQLYAADRNCMWSKKCSGVACLVKDNPQRSYFLRIFDIKDGKLLWEQELYNNFVYNSPRGYFHTFAGDTCQVALNFANEEEAKKFRKAVTDLLGRRQRKSEKRRDPPNGPNLPMATVDIKNPEITTNRFYGPQVNNISHTKEKKKGKAKKKRLTKADIGTPSNFQHIGHVGWDPNTGFDLNNLDPELKNLFDMCGISEAQLKDRETSKVIYDFIEKTGGVEAVKNELRRQAPPPPPPSRGGPPPPPPPPHNSGPPPPPARGRGAPPPPPSRAPTAAPPPPPPSRPSVAVPPPPPNRMYPPPPPALPSSAPSGPPPPPPSVLGVGPVAPPPPPPPPPPPGPPPPPGLPSDGDHQVPTTAGNKAALLDQIREGAQLKKVEQNSRPVSCSGRDALLDQIRQGIQLKSVADGQESTPPTPAPTSGIVGALMEVMQKRSKAIHSSDEDEDEDDEEDFEDDDEWED
In turn, B1 gave an average FRET efficiency E% of 14%.
